Target: T1, mpl-Ig (human, UniProt P40238 26-491, limits assumed)
T1 construct: From conditioned media of mpl-Ig-transfected 293 cells; also called mpl-IgG; not shown: human IgG Fc (the fusion is captured with rabbit anti-human IgG Fc)
T1 sequence (looked up): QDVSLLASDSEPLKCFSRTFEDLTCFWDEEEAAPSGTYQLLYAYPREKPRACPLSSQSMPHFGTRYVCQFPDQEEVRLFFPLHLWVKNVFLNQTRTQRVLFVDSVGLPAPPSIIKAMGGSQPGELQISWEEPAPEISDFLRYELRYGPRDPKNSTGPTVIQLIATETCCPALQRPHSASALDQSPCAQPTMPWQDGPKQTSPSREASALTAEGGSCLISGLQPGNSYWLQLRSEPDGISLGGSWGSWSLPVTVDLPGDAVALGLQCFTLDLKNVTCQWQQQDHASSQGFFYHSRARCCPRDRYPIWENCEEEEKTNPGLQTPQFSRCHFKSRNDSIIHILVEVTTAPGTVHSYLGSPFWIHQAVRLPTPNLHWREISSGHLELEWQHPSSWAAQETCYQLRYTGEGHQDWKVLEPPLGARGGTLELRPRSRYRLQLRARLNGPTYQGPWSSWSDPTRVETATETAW
Test: competition ELISA, biotinylated TPO on captured mpl-Ig

B1: 12E10 Fab′2 (other)
VH: QVQLQQSGPGLVKPSETLSLTCTVSGDSISSYYWSWIRQPPGKGLEWIGYIYYSGSTNYNPSLKSRVTISVDTSKSQFSLKLSSVTAADTAVYYCARGRYFDVWGRGTMVTVSS
VL: SYVLTQPPSVSGSPGQSITISCTGTSSDVGGYNYVSWYQQHPGKAPKLMIYEGSKRPSGVSNRFSGSKSGNTASLTISGLQAEDEADYYCSSYTTRSTRVFGGGTKLTVL
notes: F(ab′)2 with leucine zipper; A lambda version of the Fab′2 vector is not described; copies: 2 + 2
  IC50: 0.64 nM

Source: US6342220 (Genentech, dated 2002)
